Consider two molecules from patent publication US8975044B2, “Polynucleotides encoding for frizzled-binding agents and uses thereof” (OncoMed Pharmaceuticals, Inc., priority 2008, dated 2015).

In experiment [1] the test system is OMP-Pn4 pancreatic tumor xenografts. Nature of the experiment: OMP-Pn4 pancreatic tumor xenograft growth. In kind it is in vivo, NOD/SCID mice. The settings on record: 10 mg/kg IP once weekly. On the procedure:
In another embodiment, anti-FZD antibodies were analyzed for their ability to reduce the growth of OMP-Pn4 pancreatic tumor xenografts. NOD/SCID mice were purchased from Harlan (Indianapolis, Ind.) and allowed to acclimate for several days prior to the studies. The establishment and characterization of in vivo cancer stem cell-driven pancreas xenograft models were described previously (Li et al., Cancer Res., 67:1030-7, 2007). For efficacy studies, OMP-Pn4 human pancreatic tumor cells were dissociated into single cell suspensions, resuspended in 1:1 (v/v) mixture of FACS buffer (Hank's balanced salt solution [HBSS] supplemented with 2% heat-inactivated fetal bovine serum and 20 mM Hepes) and Matrigel (BD Bioscience, San Jose, Calif.) and implanted subcutaneously into the right flank region of 6-7 weeks old male NOD/SCID mice with a 25-gauge needle containing 50,000 cells/100 μL. Tumor growth was monitored weekly and tumor measurements were initiated once tumors were palpable. […] Tumor growth was measured by with an electronic caliper (Coast Tools Company, San Leandro, Calif.). Tumors were measured once a week and tumor volume was determined using the formula ½(a×b^2); where a=length (longest axis of the tumor), and b=breadth (shortest axis of the tumor). […] Data are expressed as mean±S.E.M. Differences in mean values between groups were analyzed by non-parimetric t test. […]

In experiment [2] the test system is smooth muscle actin (SMA). The experiment is described as follows: Smooth Muscle Actin alpha immunofluorescence on treated OMP-PN4 tumors. In kind it is in vivo, NOD/SCID mice. The settings on record: 10 mg/kg once a week for 6 weeks; vs control mAb. As for the experimental part: As described in Example 7 above, OMP-PN4 tumor-bearing NOD/SCID mice were treated with control Ab (LZ-1), 18R5, gemcitabine, or the combination of 18R5 and gemcitabine once a week for 6 weeks. The antibodies were administered at a concentration of 10 mg/kg. After they were harvested, the tumors from that experiment were analyzed for the expression of Wnt target genes at both the RNA and protein levels, using microarray and IHC, respectively.
In preparation for Smooth Muscle Actin alpha (SMAa) immunofluorescence, tumor tissue was frozen using OCT. 4 micron sections were obtained and stored frozen at −80° C. For SMAa staining, tissue was fixed using chilled acetone at −20° C. for 15 minutes and then allowed to dry and come to room temperature and then marked using a hydrophobic PAP pen. Slides were then washed using phosphate buffered saline (PBS). Tissue was blocked using normal horse serum R.T.U. (Vector Labs) for 2 hours at room temperature. Primary antibody staining was performed with 1:10,000 dilution of FITC-conjugated Smooth muscle actin alpha antibody (cline 1A4, #F3777, SIGMA) for 1 hour. Sections were washed 3 times using PBS containing 0.1% triton X-100. Slides were then air-dried and then mounted using Hard set mounting medium containing DAPI (vectashied H-500).

The subject of a further experiment is OMP-Pn4 tumors. The experiment is described as follows: Limiting dilution assay of cancer stem cell frequency in treated OMP-Pn4 tumors. In kind it is in vivo, NOD/SCID mice. The conditions noted are these: tumors after 41 days treatment; 30-810 cells re-injected, 75 days; L-Calc. As for the experimental part:
Control and treated tumors from the OMP-Pn4 xenograft study described above (Example 7) were harvested at the end of 41 days treatment. The tumors were processed and dissociated into single cells. Tumor cells were then incubated with biotinylated mouse antibodies (α-mouse CD45-biotin 1:200 dilution and rat α-mouse H2 Kd-biotin 1:100 dilution, BioLegend, San Diego, Calif.) on ice for 30 min followed by addition of streptavidin-labeled magnetic beads (Invitrogen, Carlsbad, Calif.) to remove mouse cells. The remaining human cells in the suspension were collected, counted and diluted to appropriate cell doses (30, 90, 270 and 810 cells), mixed in the mixture of 1:1 (v/v) FACS buffer and Matrigel and injected subcutaneously in NOD/SCID mice (10 mice per cell dose per treatment group). Each dot in FIG. 40 represents the tumor volume of an individual mouse. The percentage of mice with detectable tumors was determined in all groups injected with anti-FZD antibody treated tumor cells and compared to the percentage of mice with detectable tumors in the controls. For example, the number of mice injected with 810 control-treated tumor cells that have detectable tumors was determined and compared to the number of mice injected with 810 FZD-antibody treated tumor cells that have detectable tumors. […]

The target in a further experiment is T1, FZD8 (Homo sapiens, UniProt Q9H461, S109Q).
T1 construct: N-terminus of the Fri domain of FZD8 in turn fused to the transmembrane domain and intracellular domain of CD4 protein; expressed in transfected cells; host or cells: HEK293
T1 sequence (Q9H461 28-158 S109Q): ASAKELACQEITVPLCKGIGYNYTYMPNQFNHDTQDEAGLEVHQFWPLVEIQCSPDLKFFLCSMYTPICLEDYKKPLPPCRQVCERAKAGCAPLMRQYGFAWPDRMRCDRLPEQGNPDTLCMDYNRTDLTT
The experiment is described as follows: Epitope mapping by FACS on FZD8 Fri domain variants on HEK293 cells. In kind it is binding. The conditions noted are these: amino acid 109S changed to 109Q.

B1: 18R5: human anti-FZD antibody; VH SEQ ID NO:10 (as 18R8), VL SEQ ID NO:14; binds FZD1, 2, 5, 7, 8 (antibody, V domains shown)
VH: EVQLVESGGGLVQPGGSLRLSCAASGFTFSHYTLSWVRQAPGKGLEWVSVISGDGSYTYYADSVKGRFTISSDNSKNTLYLQMNSLRAEDTAVYYCARNFIKYVFANWGQGTLVTVSS
VL: DIELTQPPSVSVAPGQTARISCSGDNIGSFYVHWYQQKPGQAPVLVIYDKSNRPSGIPERFSGSNSGNTATLTISGTQAEDEADYYCQSYANTLSLVFGGGTKLTVLG
modifications: 18R5/18R8 heavy chain variable region (VH); 18R5 light chain variable region (VL)
Regarding B1, the “tumor growth, monotherapy” value in experiment [1] was “did not result in a significant reduction in tumor growth”. The “Smooth Muscle Actin alpha (SMAa) amount” value in experiment [2] is given as “Reduced amounts of SMAa”. For the same molecule, the “cancer stem cell frequency” value in the experiment with OMP-Pn4 tumors is listed as “reduced cancer stem cell frequency”.

B2: 18R8: human anti-FZD antibody from phage display; VH SEQ ID NO:10, VL SEQ ID NO:12; binds FZD1, 2, 5, 7, 8 (antibody, V domains shown)
VH: B1 VH
VL: DIELTQPPSVSVAPGQTARISCSGDKLGKKYASWYQQKPGQAPVLVIYEKDNRPSGIPERFSGSNSGNTATLTISGTQAEDEADYYCSSFAGNSLEVFGGGTKLTVLG
modifications: 18R5/18R8 heavy chain variable region (VH); 18R8 light chain variable region (VL)
Regarding B2, the “binding to FZD8 variant” value with FZD8 was “no appreciable effect”.
